# Test results as given in patent US20110035817A1 (YEDA RESEARCH AND DEVELOPMENT, published 2011).
# Biological target: T1, myc-NIK (wild-type NIK fused N-terminally to a six myc tag) (UniProt Q99558 1-947)
# T1 construct: pCS3MTNIK expression vector, co-transfected into HEK-293T cells; also called NF-κB-inducing kinase; MAP3K14; not shown: six myc tag at the N-terminus
# Experiment: co-immunoprecipitation from HEK-293T lysate: NIK immunoprecipitated with anti-NIK antibody, co-precipitated SIVA detected by Western blot
# Method: FLAG-SIVA2 or FLAG-SIVA3 expression vectors were co-transfected with NIK expression vector into HEK-293T cells. 24 h later, cells were lysed, NIK was immunoprecipitated with anti-NIK antibody and co-precipitated SIVA was monitored by western Blotting. WB=Western Blot, TLC=Total cell lysate, IP=immunoprecipitation.
# Next, it was explored whether SIVA3 binds NIK. FLAG-SIVA2 (8 μg) or FLAG-SIVA3 (8 μg) were co-transfected with myc-NIK (7 μg) into HEK-293T cells (1.5×10⁶ seeded in 90 mm plate, transfected using calcium phosphate method). 24 h later, cells were lysed, NIK was immunoprecipitated with anti-NIK antibody and co-precipitated SIVA was detected by western Blotting.
# T1 sequence (Q99558 whole entry, the tested form may be a part): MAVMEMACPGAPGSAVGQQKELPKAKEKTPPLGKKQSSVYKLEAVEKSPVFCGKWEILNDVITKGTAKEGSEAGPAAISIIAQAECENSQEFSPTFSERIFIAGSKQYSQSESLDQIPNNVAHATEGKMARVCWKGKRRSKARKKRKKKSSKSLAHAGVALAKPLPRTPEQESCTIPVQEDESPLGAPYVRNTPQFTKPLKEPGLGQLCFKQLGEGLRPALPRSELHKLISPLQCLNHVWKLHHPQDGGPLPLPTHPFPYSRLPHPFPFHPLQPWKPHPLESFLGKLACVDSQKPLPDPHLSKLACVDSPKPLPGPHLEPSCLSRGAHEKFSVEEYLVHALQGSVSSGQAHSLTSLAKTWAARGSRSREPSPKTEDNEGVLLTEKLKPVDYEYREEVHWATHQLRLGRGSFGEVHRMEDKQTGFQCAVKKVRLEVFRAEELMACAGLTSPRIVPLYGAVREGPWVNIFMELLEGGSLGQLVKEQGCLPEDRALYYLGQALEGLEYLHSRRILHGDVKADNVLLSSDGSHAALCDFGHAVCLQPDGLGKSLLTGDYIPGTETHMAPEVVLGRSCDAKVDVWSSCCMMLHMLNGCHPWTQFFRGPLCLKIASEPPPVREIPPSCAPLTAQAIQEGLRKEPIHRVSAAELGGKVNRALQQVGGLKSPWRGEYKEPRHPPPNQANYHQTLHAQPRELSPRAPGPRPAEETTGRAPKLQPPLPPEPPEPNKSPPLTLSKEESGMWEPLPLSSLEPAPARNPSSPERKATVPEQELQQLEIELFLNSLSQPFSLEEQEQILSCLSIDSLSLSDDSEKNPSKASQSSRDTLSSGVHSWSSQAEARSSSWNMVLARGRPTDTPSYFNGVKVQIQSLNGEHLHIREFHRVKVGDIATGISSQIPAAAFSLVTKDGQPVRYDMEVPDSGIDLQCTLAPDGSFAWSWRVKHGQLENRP
binder,measurement,value
"FLAG-SIVA3 (other, Expressed from pcDNA3 in HEK-293T cells and tested in lysate by co-immunoprecipitation; not shown: FLAG tag) MPKRSCPFADVAPLQLKVRVSQRELSRGVCAERYSQEVFAAVTCTRKCCAPAVPCSRPEAGSSRLPSPGATPCMAAFPGRALGVHTELWGRREGCLLHVLFCILMTE",binding result,no binding
